Measured values as given in publication PMC11425217, “CCDC68 Maintains Mitotic Checkpoint Activation by Promoting CDC20 Integration into the MCC” (Advanced Science, 2024).

Experiments:
GST‐CDC20 [1] = molecular target: T1, GST‐CDC20 (human (cDNA from HEK293T cells), UniProt Q12834 1-499); assay: pull-down; purified MBP, MBP‐CCDC68‐FL or MBP‐CCDC68‐Δ280–300 incubated with GST‐CDC20; Coomassie staining and immunoblot; details: both partners purified
T1 construct: CDC20, full-length cDNA amplified from HEK293T cell cDNA; The legend names no limits; source: E. coli BL21, purified (Glutathione Sepharose 4B)

GST‐CDC20 [2] = molecular target: T1, GST‐CDC20; assay: pull-down; purified CCDC68 (50 nM) incubated with GST or the GST fusion protein; Coomassie staining and immunoblot; details: both partners purified

T1 sequence (Q12834 whole entry): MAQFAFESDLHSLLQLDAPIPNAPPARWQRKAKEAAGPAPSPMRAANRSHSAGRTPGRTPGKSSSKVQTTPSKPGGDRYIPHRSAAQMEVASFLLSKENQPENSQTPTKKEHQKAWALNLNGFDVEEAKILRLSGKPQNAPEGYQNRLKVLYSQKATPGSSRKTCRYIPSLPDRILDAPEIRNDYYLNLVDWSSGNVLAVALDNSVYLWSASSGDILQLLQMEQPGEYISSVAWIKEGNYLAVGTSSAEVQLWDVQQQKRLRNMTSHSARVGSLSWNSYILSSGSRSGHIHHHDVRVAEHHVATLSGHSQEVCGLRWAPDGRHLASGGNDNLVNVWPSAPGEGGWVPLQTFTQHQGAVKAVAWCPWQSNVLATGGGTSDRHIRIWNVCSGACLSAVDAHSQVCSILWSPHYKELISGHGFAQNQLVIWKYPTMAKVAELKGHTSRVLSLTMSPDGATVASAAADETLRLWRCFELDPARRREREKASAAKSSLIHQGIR

B1: MBP‐CCDC68‐Full length (FL) (natural protein, human (cDNA from HEK293T cells), UniProt Q9H2F9 1-335, looked up)
chain: MTTVTVTTEIPPRDKMEDNSALYESTSAHIIEETEYVKKIRTTLQKIRTQMFKDEIRHDSTNHKLDAKHCGNLQQGSDSEMDPSCCSLDLLMKKIKGKDLQLLEMNKENEVLKIKLQASREAGAAALRNVAQRLFENYQTQSEEVRKKQEDSKQLLQVNKLEKEQKLKQHVENLNQVAEKLEEKHSQITELENLVQRMEKEKRTLLERKLSLENKLLQLKSSATYGKSCQDLQREISILQEQISHLQFVIHSQHQNLRSVIQEMEGLKNNLKEQDKRIENLREKVNILEAQNKELKTQVALSSETPRTKVSKAVSTSELKTEGVSPYLMLIRLRK
notes: CCDC68, full-length cDNA amplified from HEK293T cell cDNA; Vector pCold‐MBP; also called MBP‐CCDC68‐FL; source: E. coli BL21, purified (Amylose Beads, eluted with maltose)
GST‐CDC20 [1]
  binding result: binds

B2: Purified CCDC68 (recombinant, from bacteria) (natural protein, human (cDNA from HEK293T cells), UniProt Q9H2F9 1-335, looked up)
chain: B1 chain
notes: CCDC68, full-length cDNA amplified from HEK293T cell cDNA; The legend names no limits; also called recombinant CCDC68; source: E. coli BL21, purified (eluted by cleaving the tag with PreScission protease)
GST‐CDC20 [2]
  binding result: binds
